The target of the test is T1, Thermus thermophilus wild type SlyD polypeptide (Thermus thermophilus).
T1 sequence: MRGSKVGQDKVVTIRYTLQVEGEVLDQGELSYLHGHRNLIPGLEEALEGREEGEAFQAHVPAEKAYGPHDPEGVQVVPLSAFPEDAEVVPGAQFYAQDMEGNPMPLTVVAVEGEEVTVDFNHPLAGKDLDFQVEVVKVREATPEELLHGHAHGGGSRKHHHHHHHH
Nature of the test: ELISA, clone culture supernatant. For orientation: ELISA stands for enzyme-linked immunosorbent assay.

The record followed here is patent US20160137728A1.

B1: MAb<h-IGF-1>M-11.09.15 (antibody, V domains shown)
VH: QVQLQQSGAELVRPGSSVKISCKASGYAFSNLWMNWVKQRPGQGLEWIGQIYPGDGDTNYYGDFKGKATLTADSSSSTAYMQLSRLTSEDSAVYFCARIGYYGMDYWGQGTSVTVSS
VL: DVVLTQTPLSLPVNIGDEASISCKSTKSLLSSDGLTYLDWYLQKPGQSPQVLIYLVSNRFSGVPDRFSGSGSGTDFTLKISRVEAEDLGVYYCFQSNYLPTFGAGTKLELK
Consider B1, for which the reactivity [mE] worked out at 32 mE.
